Laboratory results published in patent publication US20240189424A1 (published 2024).
Where a chain is given by its changes, count along the chain named.

T1: Soluble monomeric B7H6-His (UniProt Q68D85 25-262, limits assumed)
T1 construct: extracellular domain; also called monovalent B7H6; soluble B7H6; not shown: C-terminal Avi-tag and 6xHis-tag
T1 sequence (looked up): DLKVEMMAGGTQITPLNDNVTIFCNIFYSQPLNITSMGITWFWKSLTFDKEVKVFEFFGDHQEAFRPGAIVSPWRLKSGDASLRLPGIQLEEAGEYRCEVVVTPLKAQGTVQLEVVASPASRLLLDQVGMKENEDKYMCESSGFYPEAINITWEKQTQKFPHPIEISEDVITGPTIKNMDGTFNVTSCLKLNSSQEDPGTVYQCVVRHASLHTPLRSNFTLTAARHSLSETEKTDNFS

B1: CC5-Fc (Fc fusion)
chain: LWVSQPPEIRTLEGSSAFLPCSFNASQGRLAIGSVTWFRDEVVPGKEVRNGTPEFRGRLAPLAPSRFLHDHQAELHIRDVRGHDASIYVCRVEVLGLGVGTGNGTRLVVEKEHPQLG
notes: also called clone CC5; not shown: mouse IgG2a Fc domain
B2: NKp30-Fc (Fc fusion)
chain: B1 chain with P64S
notes: Extracellular domain of NKp30 fused to a mouse IgG2a Fc domain, expressed in expi293 HEK cells, bivalent; also called native NKp30; wildtype NKp30; not shown: mouse IgG2a Fc domain

Experiments:
[1] = biological target: T1, Soluble monomeric B7H6-His; assay: BLI (Octet RED96), Fc fusion on Protein A tips, monovalent B7H6-His in solution, steady state affinity
Method: (§1) BioLayer Interferometry (BLI) measurements of affinity KD were obtained using the ForteBio Octet RED96 system as previously described. Briefly, Protein A-coated biosensor tips were “activated” by incubation with 41 nM TZ47-Fc, NKp30-Fc, or CC3-Fc for 10 min to load tips. Binding to soluble B7H6-His were assessed by allowing TZ47-Fc, NKp30-Fc, or CC3-Fc coated tips to equilibrate in PBS+0.1% Tween-20 (PBST) for 5 min, followed by association steps in 200 μL of each antigen at concentrations ranging from 0 to 3000 nM for 10 min, and dissociation steps in 200 µL of PBST for 5 min. Data was analyzed using Octet® System Data Analysis software.
(§2) Clone CC5, which contains only the consensus S82P mutation, along with CC3, which had two additional amino acid substitutions, were chosen for further characterization. To define binding affinities and kinetics with improved resolution, CC3, CC5, NKp30, and TZ47 sequences were expressed recombinantly as Fc fusion proteins. Affinity to monovalent B7H6 was determined by Biolayer Interferometry (BLI). […] The fast on and off rate profile of NKp30 was maintained in the variants despite the increase in overall affinity.

[2] = biological target: T1, Soluble monomeric B7H6-His; assay: BLI, Fc fusion on Protein A tips, monovalent B7H6-His
Method: as §1, §2

| Molecule | Kd [1] | fold improvement of KD compared to NKp30 [2] |
| --- | --- | --- |
| CC3-Fc (from UniProt O14931 19-135) (Fc fusion) | 680 nM | 2 fold |
| B1 | 580 nM | 2 fold |
| B2 | 1300 nM |  |
